Reference: patent US6037145

Target: Z-Phe-Leu-Glu-4-nitranilide

## recombinant V8 protease (V8D) (enzyme)
  enzyme activity after refolding: 30 µg/mL
